Assay results taken from patent US20260199524.

Columns and labels:
Histone H3.1 = Histone H3.1 (UniProt P68431)
Histone H3.3 = Histone H3.3 (UniProt P84243)
Histone H4 = Histone H4 (UniProt P62805)

wild type SIRT6 polypeptide (sirtuin 6)
histone acetylation/methylation PTM profile by LC-MS/MS in 3T3-L1 adipocytes (Histone H3.1): Overexpression of SIR6 wt or SIRT6cent in 3T3-L1 led to changes in the acetylation profiles of histones H3.1, H3.2 and H4
histone acetylation/methylation PTM profile by LC-MS/MS in 3T3-L1 adipocytes (Histone H3.3): significant difference between AdiWT and AdiCent at the levels of lysines (K) ... K27, K36 and K37 in H3.3
histone acetylation PTM profile by LC-MS/MS in 3T3-L1 adipocytes (Histone H4): Overexpression of SIR6 wt or SIRT6cent in 3T3-L1 led to changes in the acetylation profiles of histones H3.1, H3.2 and H4
